Patent CN113735970A (INST MILITARY MEDICINE ACADEMY MILITARY SCIENCES PLA, dated 2021)

Columns and labels:
SARS-CoV-2 WT S-ECD蛋白 = SARS-CoV-2 WT S-ECD蛋白 (SARS-CoV-2, UniProt P0DTC2 14-1213)
SARS-CoV-2 WT RBD蛋白 = SARS-CoV-2 WT RBD蛋白 (SARS-CoV-2, UniProt P0DTC2 319-541)

B1: 抗SARS-CoV-2全人源单克隆抗体ZWC6 (antibody, human IgG1, kappa, V domains shown)
VH: EVQLVESGGGVVQPGTSLRLSCAASGFSFSHYVMYWVRQAPGKGLDWVAIISFDGSSQYYADSVKGRFTISRDNSKDTLYLQMHSLRPEDTAVYYCAIHGGTYYYDKNILAWGQGTLVTVSS
VL: AIRMTQSPPTLSLSPGERATLSCRASQSVTNYLVWYQQKPGQAPRLLIYDTFNRATGIPARFSGSGSGTDFTLTISSLEPEDFAVYYCQQRSNWPPTFGQGTKVDIKR
- Kd (SARS-CoV-2 WT S-ECD蛋白): 1.49 nM
- koff (SARS-CoV-2 WT S-ECD蛋白): 0.000255 s⁻¹
- kon (SARS-CoV-2 WT S-ECD蛋白): 171000 M⁻¹ s⁻¹
- Kd (SARS-CoV-2 WT RBD蛋白): 0.683 nM
- koff (SARS-CoV-2 WT RBD蛋白): 0.000365 s⁻¹
- kon (SARS-CoV-2 WT RBD蛋白): 535000 M⁻¹ s⁻¹
